According to paper PMC10287930, “RecF protein targeting to post-replication (daughter strand) gaps II: RecF interaction with replisomes” (Nucleic Acids Research, 2023):

B1: TopB (Gal4 fusion for yeast two-hybrid) (natural protein, E. coli, UniProt P14294 1-653, looked up)
chain: MRLFIAEKPSLARAIADVLPKPHRKGDGFIECGNGQVVTWCIGHLLEQAQPDAYDSRYARWNLADLPIVPEKWQLQPRPSVTKQLNVIKRFLHEASEIVHAGDPDREGQLLVDEVLDYLQLAPEKRQQVQRCLINDLNPQAVERAIDRLRSNSEFVPLCVSALARARADWLYGINMTRAYTILGRNAGYQGVLSVGRVQTPVLGLVVRRDEEIENFVAKDFFEVKAHIVTPADERFTAIWQPSEACEPYQDEEGRLLHRPLAEHVVNRISGQPAIVTSYNDKRESESAPLPFSLSALQIEAAKRFGLSAQNVLDICQKLYETHKLITYPRSDCRYLPEEHFAGRHAVMNAISVHAPDLLPQPVVDPDIRNRCWDDKKVDAHHAIIPTARSSAINLTENEAKVYNLIARQYLMQFCPDAVFRKCVIELDIAKGKFVAKARFLAEAGWRTLLGSKERDEENDGTPLPVVAKGDELLCEKGEVVERQTQPPRHFTDATLLSAMTGIARFVQDKDLKKILRATDGLGTEATRAGIIELLFKRGFLTKKGRYIHSTDAGKALFHSLPEMATRPDMTAHWESVLTQISEKQCRYQDFMQPLVGTLYQLIDQAKRTPVRQFRGIVAPGSGGSADKKKAAPRKRSAKKSPPADEVGSGAIA
notes: TopB (DNA topoisomerase III), E. coli; open reading frame (start to stop codons) of topB; also called pGAD-TopB; pGBD-TopB; source: yeast two-hybrid fusion (yeast CFy7; pEAW1251 pGAD-TopB, pEAW1252 pGBD-TopB)
B2: RadD (Gal4 fusion for yeast two-hybrid) (natural protein, E. coli, UniProt P33919 1-586, looked up)
chain: MIFTLRPYQQEAVDATLNHFRRHKTPAVIVLPTGAGKSLVIAELARLARGRVLVLAHVKELVAQNHAKYQALGLEADIFAAGLKRKESHGKVVFGSVQSVARNLDAFQGEFSLLIVDECHRIGDDEESQYQQILTHLTKVNPHLRLLGLTATPFRLGKGWIYQFHYHGMVRGDEKALFRDCIYELPLRYMIKHGYLTPPERLDMPVVQYDFSRLQAQSNGLFSEADLNRELKKQQRITPHIISQIMEFAATRKGVMIFAATVEHAKEIVGLLPAEDAALITGDTPGAERDVLIENFKAQRFRYLVNVAVLTTGFDAPHVDLIAILRPTESVSLYQQIVGRGLRLAPGKTDCLILDYAGNPHDLYAPEVGTPKGKSDNVPVQVFCPACGFANTFWGKTTADGTLIEHFGRRCQGWFEDDDGHREQCDFRFRFKNCPQCNAENDIAARRCRECDTVLVDPDDMLKAALRLKDALVLRCSGMSLQHGHDEKGEWLKITYYDEDGADVSERFRLQTPAQRTAFEQLFIRPHTRTPGIPLRWITAADILAQQALLRHPDFVVARMKGQYWQVREKVFDYEGRFRLAHELRG
notes: RadD (YejH), E. coli; also called YejH; pGAD-YejH; source: yeast two-hybrid fusion (yeast CFy7)
B3: RecR (Gal4 fusion for yeast two-hybrid) (natural protein, E. coli, UniProt P0A7H6 1-201, looked up)
chain: MQTSPLLTQLMEALRCLPGVGPKSAQRMAFTLLQRDRSGGMRLAQALTRAMSEIGHCADCRTFTEQEVCNICSNPRRQENGQICVVESPADIYAIEQTGQFSGRYFVLMGHLSPLDGIGPDDIGLDRLEQRLAEEKITEVILATNPTVEGEATANYIAELCAQYDVEASRIAHGVPVGGELEMVDGTTLSHSLAGRHKIRF
notes: RecR, E. coli; open reading frame (start to stop codons) of recR; Stood as AD fusion and as BD fusion in turn; also called pGAD-RecR; pGBD-RecR; source: yeast two-hybrid fusion (yeast CFy7; pEAW1247 pGAD-RecR, pEAW1248 pGBD-RecR)
B4: RecF (Gal4 fusion for yeast two-hybrid) (natural protein, E. coli, UniProt P0A7H0 1-357, looked up)
chain: MSLTRLLIRDFRNIETADLALSPGFNFLVGANGSGKTSVLEAIYTLGHGRAFRSLQIGRVIRHEQEAFVLHGRLQGEERETAIGLTKDKQGDSKVRIDGTDGHKVAELAHLMPMQLITPEGFTLLNGGPKYRRAFLDWGCFHNEPGFFTAWSNLKRLLKQRNAALRQVTRYEQLRPWDKELIPLAEQISTWRAEYSAGIAADMADTCKQFLPEFSLTFSFQRGWEKETEYAEVLERNFERDRQLTYTAHGPHKADLRIRADGAPVEDTLSRGQLKLLMCALRLAQGEFLTRESGRRCLYLIDDFASELDDERRGLLASRLKATQSQVFVSAISAEHVIDMSDENSKMFTVEKGKITD
notes: RecF, E. coli; open reading frame (start to stop codons) of recF cloned in frame into pGAD-C3 and pGBD-C3; Stood as AD fusion and as BD fusion in turn; one molecule for both; source: yeast two-hybrid fusion (yeast CFy7; pEAW1241 pGAD-RecF, pEAW1242 pGBD-RecF)
B5: RecO (Gal4 fusion for yeast two-hybrid) (natural protein, E. coli, UniProt P0A7H3 1-242, looked up)
chain: MEGWQRAFVLHSRPWSETSLMLDVFTEESGRVRLVAKGARSKRSTLKGALQPFTPLLLRFGGRGEVKTLRSAEAVSLALPLSGITLYSGLYINELLSRVLEYETRFSELFFDYLHCIQSLAGVTGTPEPALRRFELALLGHLGYGVNFTHCAGSGEPVDDTMTYRYREEKGFIASVVIDNKTFTGRQLKALNAREFPDADTLRAAKRFTRMALKPYLGGKPLKSRELFRQFMPKRTVKTHYE
notes: RecO, E. coli; open reading frame (start to stop codons) of recO; also called pGAD-RecO; pGBD-RecO; source: yeast two-hybrid fusion (yeast CFy7; pEAW1258 pGAD-RecO, pEAW1259 pGBD-RecO)
B6: RecQ (Gal4 fusion for yeast two-hybrid) (natural protein)
chain: not shown
notes: RecQ helicase, E. coli; open reading frame (start to stop codons) of recQ; also called pGAD-RecQ; pGBD-RecQ; source: yeast two-hybrid fusion (yeast CFy7; pEAW1100 pGAD-RecQ, pEAW1105 pGBD-RecQ)

Assays:
Test in all cases: two-hybrid; yeast CFy7; RecF fused to Gal4 AD (pGAD-C3) or BD (pGBD-C3) and the partner to the other domain; β-galactosidase activity of freeze/thaw-broken cells in Z buffer; 4 or 5 biological replicates; negative controls (empty C3) 0.21 (AD_RecF) and 0.27 units (BD_RecF)
[1] = target: B4; conditions: partners not purified
[2] = target: the molecule itself
[3] = target: B3; conditions: partners not purified
[4] = target: T1, DnaN β-clamp (Gal4 fusion for yeast two-hybrid) (E. coli, UniProt P0A988 1-366); conditions: partners not purified
T1 construct: DnaN (β-clamp of DNA polymerase III), E. coli; open reading frame (start to stop codons) of dnaN; also called pGBD-DnaN; source: yeast two-hybrid fusion (yeast CFy7; pEAW1101 pGAD-DnaN, pEAW1104 pGBD-DnaN)
T1 sequence (P0A988 whole entry, the tested form may be a part): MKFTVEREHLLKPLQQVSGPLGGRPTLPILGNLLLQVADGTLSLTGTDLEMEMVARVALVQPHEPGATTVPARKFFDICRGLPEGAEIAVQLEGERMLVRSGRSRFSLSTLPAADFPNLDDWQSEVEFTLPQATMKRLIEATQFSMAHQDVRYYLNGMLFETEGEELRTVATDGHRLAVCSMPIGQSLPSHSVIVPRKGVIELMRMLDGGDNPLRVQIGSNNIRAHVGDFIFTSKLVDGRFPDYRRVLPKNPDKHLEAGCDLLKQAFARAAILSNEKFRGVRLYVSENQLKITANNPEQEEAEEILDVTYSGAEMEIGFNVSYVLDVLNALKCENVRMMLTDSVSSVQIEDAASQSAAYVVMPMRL

Row | Binder | β-galactosidase activity [1] [units] | further results
1 | B1 | ~0.5 | –
2 | B2 | ~0.5 | –
3 | B3 | 1.63 | –
4 | B4 | – | β-galactosidase activity [2]: 0.655 units; β-galactosidase activity [3]: 1.14 units; β-galactosidase activity [4]: 1.05 units
5 | B5 | ~0.5 | –
6 | B6 | ~0.5 | –
